In patent US20140302021A1 (ONCLAVE THERAPEUTICS, published 2014):
No end group written: not given here.

Molecular target: T1, CGGHEDT (SEQ ID NO: 17) conjugated to Ovalbumin (also: conjugated to ovalbumin)
T1 construct: Peptide-carrier conjugate used as the ELISA antigen
T1 peptide: CGGHEDT
Test: competitive binding ELISA
Excerpt: A competitive binding ELISA has been established to measure binding of humanized 2A4 to its antigen (CGGHEDT (SEQ ID NO: 17) when conjugated to Ovalbumin) compared to the reference standard.

B1: humanized 2A4 antibody (IgG1, kappa isotype version of murine 2A4) (antibody, V domains shown)
VH: EVQLVESGGGLVQPGGSLRLSCAASGFTFNTYAMYWIRQAPGKGLEWVARIRSKSNNYAIYYADSVKDRFTISRDDSKNSLYLQMNSLKTEDTAVYYCARPYSDSFAYWGQGTLVTVSS
VL: DVVMTQSPLSLPVTPGEPASISCRSSQSLVHSTGNTYLHWYLQKPGQSPQLLIYKVSNRFSGVPDRFSGSGSGTDFTLKISRVEAEDVGVYYCSQSTHVPFTFGGGTKVEIKR
modifications: N-linked glycosylation at the consensus sequence, positions 299 to 301
notes: Human IgG1 of G1m(3) allotype, kappa; also called h2A4; humanized 2A4 drug substance
- binding result: binds
